Experimental data reported in patent publication US5198419A, “Formulated medicines for enhancing the efficacy of beta-lactam antibiotics in prophylaxis and treatment against infectious disease due to pathogenic bacteria” (Immuno Japan Inc., priority 1989, dated 1993).
“Also recorded” adds a separate entry of the source.

Tests used:
pathogenic bacteria = assay: Potentiation of beta-lactam antibiotics by lactoferrin at the whole animal level (general statements); type: in vivo
Experimental: Co-administration of lactoferrin with beta-lactam antibiotics greatly reduces the antibiotic requirement, that is, 1/2 to 1/6 of the amount of the antibiotics required in monotherapy in combination with lactoferrin (combined therapy) show the same curative effects as the antibiotic treatment alone (monotherapy). Oral administration of lactoferrin is an effective route, and the dose of lactoferrin required for this potentiation is 0.5-100 mg/kg and the optimum dose may be 1-10 mg/kg.
Apolactoferrin can be utilized as a raw material to prepare lactoferrin with desired degrees of iron-saturation by adding calculated amounts of ferric ions in the presence of carbonium anions. […] Therefore, lactoferrins with various degrees of iron-saturation can be successfully utilized in this invention. The efficacy potentiation of beta-lactam antibiotics by lactoferrin is independent of the degree of the iron-saturation of lactoferrin.
When lactoferrin is orally dosed to potentiate the efficacy of beta-lactam antibiotics, either the combined formulation with the antibiotics or the formulation containing lactoferrin alone as an active ingredient can be successfully used. When lactoferrin is dosed separately from the antibiotics, the timing of the dosing is very important. The potentiating effect is the strongest when lactoferrin is given from six hours before to one hour after the antibiotic administration.

[1] = tested on: Klebsiella pneumoniae strain 3K25; assay: Example 2: experimental infection in mice, cefpodoxime with or without apolactoferrin; type: in vivo, strain ICR; conditions: lactoferrin treated control (iron free apolactoferrin 0.4 mg p.o.)
Experimental: (§1) For ED50 values, a range of amounts of antibiotics is given in the examples (e.g., penicillin G: 0.4, 0.2, 0.1, 0.05 mg/mouse). To calculate the ED50, groups of mice in the monotherapy groups and groups of mice in the combined therapy groups received the indicated amount of antibiotic (e.g., one group received 0.4 mg/mouse of penicillin G, one group received 0.2 mg/mouse of penicillin G, one group received 0.1 mg/mouse of penicillin G, one group received 0.05 mg/mouse of penicillin G).
Sixty male mice, strain ICR, five weeks of age, weighing 19.3±1.1 g (mean body weight±the standard deviation) were randomly allocated into ten groups (n=6), and intraperitoneally injected with pneumobacilli, Klebsiella pneumoniae strain 3K25, 5×10^5 CFU/mouse. One hour after the injection, the first group was orally given 0.2 ml of physiological saline, the second group orally given iron free apolactoferrin (0.4 mg) in 0.2 ml of saline, the third through the sixth groups were orally given cefpodoxime (4, 2, 1, and 0.5 mg/mouse) in 0.2 ml saline, and the seventh through the tenth groups orally given the admixture of cefpodoxime (4, 2, 1, and 0.5 mg/mouse) and apolactoferrin (0.4 mg) in 0.2 ml of saline. Mice were fed ad libitum and observed for a week under the same conditions as described in Example 1.

[2] = Stability of bovine lactoferrin powder; type: physicochemical
Excerpt: The stability of bovine lactoferrin powder is also not affected by the degree of iron-saturation. […] Much care should be taken to avoid lactoferrin denaturation, especially denaturation by heat, in any formulating process. Due to its high stability, it is readily processed into mixed formulations with beta-lactam antibiotics for oral administration in any proportion, for example, freely mixed with lactose, cellulose, cellulose derivatives, magnesium stearate, and talc. One of the best ways to make lactoferrin liquid formulations, such as tincture and syrup, is adjustment of the pH to pH 3.1-4.0 by the addition of lactic acid to avoid bacterial contamination, then add paraaminobenzoic acid derivatives as preservatives against fungal contamination, and filtration through membrane filters (e.g., with pore size of 0.2 μm) into aseptic bottles.

[3] = tested on: Klebsiella pneumoniae strain 3K25; assay: Example 5: experimentally infected fed and fasted mice, cefpodoxime with or without native lactoferrin; type: in vivo, strain ICR; conditions: cefpodoxime
Experimental: as §1
Male mice, strain ICR, five weeks old, weighing an average of 21.6 g, were randomly allocated into sixteen groups (n =6). During the next 24 hours, eight groups were allowed free access to diet and water, while the other eight groups were fasted overnight. On the next day, all the mice were injected with 1.4×10^6 CFU/mouse of Klebsiella pneumoniae strain 3K25. The minimal lethal dose of this bacterium is […], and thus the injected dose was 1,000 times greater than the minimal lethal dose. Immediately after the injection, the fed groups were orally given cefpodoxime (10, 5, 2.5, and 1.25 mg/mouse) simultaneously with or without native lactoferrin (0.2 mg/mouse). The fasted groups also were orally given cefpodoxime (10, 5, 2.5, and 1.25 mg/mouse) simultaneously with or without native lactoferrin (0.2 mg/mouse).

[4] = tested on: Klebsiella pneumoniae strain 3K25; assay: Example 1: experimental infection in mice, cefpodoxime with or without native lactoferrin; type: in vivo, strain ICR; conditions: lactoferrin alone 0.4 mg/mouse p.o.; within 24 hours / one day after injection
Experimental: as §1
Sixty male mice, strain ICR, four weeks of age, body weight 19±1.0 g (mean±the standard deviation) were randomly divided into ten groups (n=6); the first group was assigned to the untreated control, the second group to the lactoferrin treated control group, the third through the sixth groups to the cephalosporin treated controls, and the seventh through the tenth groups to the combined treatment group of cephalosporin and lactoferrin. The mice were intraperitoneally injected with pneumobacillus, Klebsiella pneumoniae strain 3K25, 5×10^6 colony forming units (CFU) per mouse. The antibiotics used were orally active cephalosporin or cefpodoxime, and the bovine lactoferrin was the native one derived from cheese whey with 28.5% iron-saturation. […]

[5] = tested on: Klebsiella pneumoniae strain 3K25; assay: Example 8: dose-response relationship of potentiation of cefpodoxime efficacy by oral lactoferrin; type: in vivo, mice, ddY
Experimental: as §1
The dose-response relationship of the potentiation of the antibiotic efficacy by lactoferrin was determined using the same experimental infection system as described in Example 1. Male ddY mice, five weeks of age, weighing approximate 20.3 g, were randomly allocated into groups (n=10); the first group was assigned to the cefpodoxime control (5 mg/mouse). The mice were intraperitoneally injected with pneumobacillus, Klebsiella pneumoniae strain 3K25, 3×10^5 per mouse. One hour after the injection, the antibiotic cefpodoxime (1, 0.5, 0.25 and 0.125 mg/mouse) was orally given in 0.2 ml of physiological saline.

[6] = tested on: Klebsiella pneumoniae 3K25; assay: Example 7: experimental infection in mice, cefaclor with or without native lactoferrin; type: in vivo, strain ddY; conditions: simultaneous oral beta-lactam antibiotics with lactoferrin one hour after i.p. injection (as shown in Table 3)
[7] = tested on: Staphylococcus aureus 209P; assay: Example 9: time-schedule of lactoferrin administration and efficacy of amoxicillin; type: in vivo, mice, ddY; conditions: lactoferrin dosed from 12 hours before to three hours after the injection
Experimental: as §1
The effect of time-schedule of lactoferrin administration on the potentiation of antibiotic efficacy was examined using an experimental model similar to Example 1. Male ddY mice (n=10), five weeks old, weighing an average of 21.9 g, were used in this experiment. On day 0 all the mice were intraperitoneally injected with 1.2×10^5 CFU/mouse of Staphylococcus aureus 209P. Amoxicillin ([…], 0.625 mg/mouse) was orally given one hour after the injection.

[8] = bovine lactoferrin, oral; cited from earlier work
Escherichia coli #11 = assay: Example 6: experimental infection in mice, ampicillin with or without apolactoferrin; type: in vivo, strain ddY; conditions: simultaneous administration of lactoferrin with ampicillin
Experimental: as §1
Male mice, strain ddY, five weeks old, weighing an average of 21.5 g, were randomly allocated into groups (n=10), and they were intraperitoneally injected with Escherichia coli #11, 1.2×10^6 CFU/mouse. Immediately after the injection, the untreated control group was orally given 0.2 ml of distilled water, the second through the fifth groups were treated once orally by ampicillin (8, 4, 2 and 1 mg/mouse), and the sixth through the ninth groups with ampicillin (4, 2, 1 and 0.5 mg/mouse) plus apolactoferrin (1 mg/mouse) in 0.2 ml of distilled water. The mice were fed ad libitum and observed for one week under the same conditions as described in Example 1. […] It is apparent from the results that lactoferrin not only potentiates the efficacy of the cephalosporin class but also the penicillin class of antibiotics.

[9] = tested on: Klebsiella pneumoniae strain 3K25; assay: Example 3: experimental infection in mice, cefaclor with or without hololactoferrin; type: in vivo, strain ICR; conditions: hololactoferrin alone 0.4 mg/mouse p.o.
Experimental: as §1
Sixty male mice, strain ICR, five weeks of age, weighing 21.3±1.5 g (mean±the standard deviation) were randomly allocated into ten groups (n=6), and intraperitoneally injected with Klebsiella pneumoniae strain 3K25, 1×10^6 CFU/mouse. One hour after the injection, the first group was orally given 0.2 ml of physiological saline, the second group orally given hololactoferrin (100% ferric ion saturated lactoferrin, 0.4 mg/mouse), the third through the sixth groups orally given cefaclor (2.0, 1.0, 0.5 and 0.25 mg/mouse each) in 0.2 ml of saline, and the seventh through the tenth groups orally given cefaclor (2.0, 1.0, 0.5 and 0.25 mg/mouse each) and hololactoferrin (100% iron saturated lactoferrin, 0.4 mg/mouse) in 0.2 ml of saline. The mice were fed ad libitum and observed for one week under the same conditions as described in Example 1.

B1: lactoferrin: bovine lactoferrin, the native one derived from cheese whey with 28.5% iron-saturation (protein, UniProt P24627 20-708, looked up)
Lactotransferrin: APRKNVRWCTISQPEWFKCRRWQWRMKKLGAPSITCVRRAFALECIRAIAEKKADAVTLDGGMVFEAGRDPYKLRPVAAEIYGTKESPQTHYYAVAVVKKGSNFQLDQLQGRKSCHTGLGRSAGWIIPMGILRPYLSWTESLEPLQGAVAKFFSASCVPCIDRQAYPNLCQLCKGEGENQCACSSREPYFGYSGAFKCLQDGAGDVAFVKETTVFENLPEKADRDQYELLCLNNSRAPVDAFKECHLAQVPSHAVVARSVDGKEDLIWKLLSKAQEKFGKNKSRSFQLFGSPPGQRDLLFKDSALGFLRIPSKVDSALYLGSRYLTTLKNLRETAEEVKARYTRVVWCAVGPEEQKKCQQWSQQSGQNVTCATASTTDDCIVLVLKGEADALNLDGGYIYTAGKCGLVPVLAENRKSSKHSSLDCVLRPTEGYLAVAVVKKANEGLTWNSLKDKKSCHTAVDRTAGWNIPMGLIVNQTGSCAFDEFFSQSCAPGADPKSRLCALCAGDDQGLDKCVPNSKEKYYGYTGAFRCLAEDVGDVAFVKNDTVWENTNGESTADWAKNLNREDFRLLCLDGTRKPVTEAQSCHLAVAPNHAVVSRSDRAAHVKQVLLHQQALFGKNGKNCPDKFCLFKSETKNLLFNDNTECLAKLGGRPTYEEYLGTEYVTAIANLKKCSTSPLLEACAFLTR
modifications: 28.5% iron-saturated
notes: bovine lactoferrin, the native one derived from cheese whey with 28.5% iron-saturation
effect of the degree of iron-saturation on potentiation of beta-lactam antibiotics (pathogenic bacteria; 100%, 28% and 0% iron-saturated lactoferrin): does not affect the potentiation | potentiating effect by timing of lactoferrin dosing (pathogenic bacteria; 12 hours before or six hours after the antibiotic administration): significant but less potent effect | potentiating effect by timing of lactoferrin dosing (pathogenic bacteria; from six hours before to one hour after the antibiotic administration): the strongest | mortality within 24 hours [1]: All the mice died within 24 hours | effect of the degree of iron-saturation on stability [2]: not affected | stability ([2]; room temperature): very stable at room temperature | rate of potentiation of antibiotic efficacy ([3]; fasted state): five fold | rate of potentiation of antibiotic efficacy ([3]; fed state): three fold | mortality [4]: all mice in those groups died by one day post-injection; also recorded: died within 24 hours | potentiation of antibiotic efficacy ([5]; lactoferrin doses from 50 to 0.05 mg per mouse, cefpodoxime): significantly potentiated the antibiotic efficacy at the same magnitude regardless of the dose | lactoferrin dose at which potentiation reaches a plateau ([5]; with cefpodoxime): 0.05 mg per mouse | potentiation of the antibiotic efficacy versus antibiotic treatment alone [6]: 2.8 fold | potentiation of amoxicillin's efficacy [7]: significantly potentiated | excretion in intact form in feces [8]: considerable amounts are excreted in intact form in feces | resistance to gastrointestinal digestion [8]: highly resistant to gastrointestinal digestion | potentiation of ampicillin efficacy in vivo (Escherichia coli #11): eight fold

B2: hololactoferrin: 100% ferric ion saturated lactoferrin (protein, UniProt P24627 20-708, looked up)
Lactotransferrin: APRKNVRWCTISQPEWFKCRRWQWRMKKLGAPSITCVRRAFALECIRAIAEKKADAVTLDGGMVFEAGRDPYKLRPVAAEIYGTKESPQTHYYAVAVVKKGSNFQLDQLQGRKSCHTGLGRSAGWIIPMGILRPYLSWTESLEPLQGAVAKFFSASCVPCIDRQAYPNLCQLCKGEGENQCACSSREPYFGYSGAFKCLQDGAGDVAFVKETTVFENLPEKADRDQYELLCLNNSRAPVDAFKECHLAQVPSHAVVARSVDGKEDLIWKLLSKAQEKFGKNKSRSFQLFGSPPGQRDLLFKDSALGFLRIPSKVDSALYLGSRYLTTLKNLRETAEEVKARYTRVVWCAVGPEEQKKCQQWSQQSGQNVTCATASTTDDCIVLVLKGEADALNLDGGYIYTAGKCGLVPVLAENRKSSKHSSLDCVLRPTEGYLAVAVVKKANEGLTWNSLKDKKSCHTAVDRTAGWNIPMGLIVNQTGSCAFDEFFSQSCAPGADPKSRLCALCAGDDQGLDKCVPNSKEKYYGYTGAFRCLAEDVGDVAFVKNDTVWENTNGESTADWAKNLNREDFRLLCLDGTRKPVTEAQSCHLAVAPNHAVVSRSDRAAHVKQVLLHQQALFGKNGKNCPDKFCLFKSETKNLLFNDNTECLAKLGGRPTYEEYLGTEYVTAIANLKKCSTSPLLEACAFLTR
modifications: 100% ferric iron saturated
notes: 100% ferric ion saturated lactoferrin
mortality within 24 hours [9]: died within 24 hours
